This is an account of results in patent CN110526967A (UNIV NORTHWEST A&F, dated 2019).

One test concerns the target T1, 金黄色葡萄球菌肠毒素B (Staphylococcus aureus, UniProt P01552 28-266).
T1 sequence: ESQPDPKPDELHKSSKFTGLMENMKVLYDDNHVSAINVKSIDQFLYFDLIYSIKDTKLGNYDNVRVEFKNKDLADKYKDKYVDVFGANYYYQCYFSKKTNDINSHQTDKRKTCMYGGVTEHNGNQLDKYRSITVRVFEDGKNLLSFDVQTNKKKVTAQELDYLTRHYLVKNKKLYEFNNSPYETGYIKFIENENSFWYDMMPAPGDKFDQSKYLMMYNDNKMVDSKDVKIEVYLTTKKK
Description: direct ELISA, antigen coated, HRP-conjugated nanobody.

For another test, the target named is T2, 金黄色葡萄球菌肠毒素A (Staphylococcus aureus, UniProt P0A0L2 25-257).
T2 sequence: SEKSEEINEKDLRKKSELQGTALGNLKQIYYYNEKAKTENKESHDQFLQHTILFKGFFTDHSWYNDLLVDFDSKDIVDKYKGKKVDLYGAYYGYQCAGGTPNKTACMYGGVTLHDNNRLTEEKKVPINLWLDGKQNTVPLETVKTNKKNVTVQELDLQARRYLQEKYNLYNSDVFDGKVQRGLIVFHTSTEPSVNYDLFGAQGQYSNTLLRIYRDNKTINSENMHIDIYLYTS
Description: phage ELISA on coated SEA. (ELISA stands for enzyme-linked immunosorbent assay.)

B1: 金黄色葡萄球菌肠毒素A纳米抗体A13 (VHH)
VHH: ESGGGSVQAGGSLRLSCAASGDAYMCKCMGWFRQGPGKEREKVAAIYITDGSTYYADSVKGRFTLSQDNAKNTVYLQMNSLKPEDTAMYYCAASTFYGCETGLHGYNYWGQGTQVTVS
In the case of B1, the binding result with 金黄色葡萄球菌肠毒素B is “no binding (tested: 500ng/mL (coating))”; with 金黄色葡萄球菌肠毒素A it was “binds”.
